Test results as given in patent publication US8357515.

Tests used:
[1] = tested on: LAP-mIL-4 fusion protein with aggrecanase cleavage site B05 (HNEFRQRETYMVF)
Target sequence (chain, as listed by the source): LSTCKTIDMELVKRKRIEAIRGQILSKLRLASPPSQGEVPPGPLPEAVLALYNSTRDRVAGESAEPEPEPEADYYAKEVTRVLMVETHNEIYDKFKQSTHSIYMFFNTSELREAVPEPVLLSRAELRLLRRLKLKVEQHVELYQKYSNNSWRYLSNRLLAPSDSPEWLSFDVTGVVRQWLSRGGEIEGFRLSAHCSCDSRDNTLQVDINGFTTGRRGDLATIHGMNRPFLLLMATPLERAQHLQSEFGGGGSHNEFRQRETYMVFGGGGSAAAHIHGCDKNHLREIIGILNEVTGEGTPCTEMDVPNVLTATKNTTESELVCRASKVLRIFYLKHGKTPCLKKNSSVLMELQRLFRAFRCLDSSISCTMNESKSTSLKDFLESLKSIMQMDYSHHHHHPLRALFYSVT

[2] = tested on: LAP-mIL-4 fusion protein with aggrecanase cleavage site B06 (DVQEFRGVTAVIR)
Target sequence (chain, as listed by the source): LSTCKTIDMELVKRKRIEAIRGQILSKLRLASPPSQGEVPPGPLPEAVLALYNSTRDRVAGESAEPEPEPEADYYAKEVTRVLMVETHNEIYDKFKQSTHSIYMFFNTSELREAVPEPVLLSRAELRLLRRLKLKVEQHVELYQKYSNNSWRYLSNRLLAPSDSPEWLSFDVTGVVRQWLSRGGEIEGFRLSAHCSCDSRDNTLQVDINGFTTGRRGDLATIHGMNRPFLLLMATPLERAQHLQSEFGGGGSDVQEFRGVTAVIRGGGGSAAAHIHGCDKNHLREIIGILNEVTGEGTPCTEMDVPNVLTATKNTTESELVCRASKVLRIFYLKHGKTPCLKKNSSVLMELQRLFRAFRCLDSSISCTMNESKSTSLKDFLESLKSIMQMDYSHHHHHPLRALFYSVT

B1: ADAMTS-4 (aggrecanase-1), recombinant (enzyme, UniProt O75173 213-837, looked up, species assumed)
A disintegrin and metalloproteinase with thrombospondin motifs 4: FASLSRFVETLVVADDKMAAFHGAGLKRYLLTVMAAAAKAFKHPSIRNPVSLVVTRLVILGSGEEGPQVGPSAAQTLRSFCAWQRGLNTPEDSDPDHFDTAILFTRQDLCGVSTCDTLGMADVGTVCDPARSCAIVEDDGLQSAFTAAHELGHVFNMLHDNSKPCISLNGPLSTSRHVMAPVMAHVDPEEPWSPCSARFITDFLDNGYGHCLLDKPEAPLHLPVTFPGKDYDADRQCQLTFGPDSRHCPQLPPPCAALWCSGHLNGHAMCQTKHSPWADGTPCGPAQACMGGRCLHMDQLQDFNIPQAGGWGPWGPWGDCSRTCGGGVQFSSRDCTRPVPRNGGKYCEGRRTRFRSCNTEDCPTGSALTFREEQCAAYNHRTDLFKSFPGPMDWVPRYTGVAPQDQCKLTCQAQALGYYYVLEPRVVDGTPCSPDSSSVCVQGRCIHAGCDRIIGSKKKFDKCMVCGGDGSGCSKQSGSFRKFRYGYNNVVTIPAGATHILVRQQGNPGHRSIYLALKLPDGSYALNGEYTLMPSPTDVVLPGAVSLRYSGATAASETLSGHGPLAQPLTLQVLVAGNPQDTRLRYSFFVPRPTPSTPRPTPQDWLHRRAQILEILRRRPWAGRK
- cleavage of the fusion protein in 293T supernatant after overnight incubation at 37 C, Western blot probed with anti-IL-4 antibody [1]: the Agg1 and Agg2 constructs are cleaved by ADAMTS-4
- cleavage of the fusion protein in 293T supernatant after overnight incubation at 37 C, Western blot probed with anti-IL-4 antibody (LAP-MMP IL-4): LAP-MMP IL-4 is only cleaved by MMP-1 (not cleaved by aggrecanase)
- cleavage of the fusion protein in 293T supernatant after overnight incubation at 37 C, Western blot probed with anti-IL-4 antibody [2]: the Agg1 and Agg2 constructs are cleaved by ADAMTS-4
